Reference: patent US20170355774A1 (Regeneron, published 2017)

T1: human GITR (amino acids M1-V241, NCBI Accession #NP_004186.1) expressed on cells (human, UniProt Q9Y5U5 26-241)
T1 construct: also called hGITR; hGITR/HEK293-D9
T1 sequence: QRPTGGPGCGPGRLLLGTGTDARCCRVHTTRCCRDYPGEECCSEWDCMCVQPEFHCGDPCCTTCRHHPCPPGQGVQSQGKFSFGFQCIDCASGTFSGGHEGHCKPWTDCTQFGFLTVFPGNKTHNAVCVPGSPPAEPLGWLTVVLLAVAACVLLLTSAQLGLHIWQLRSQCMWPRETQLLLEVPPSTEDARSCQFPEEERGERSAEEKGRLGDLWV

T2: hGITR.mmh (human)
T2 construct: soluble monomeric construct; also called human (h) GITR.mmh; monomeric human GITR
T2 chain: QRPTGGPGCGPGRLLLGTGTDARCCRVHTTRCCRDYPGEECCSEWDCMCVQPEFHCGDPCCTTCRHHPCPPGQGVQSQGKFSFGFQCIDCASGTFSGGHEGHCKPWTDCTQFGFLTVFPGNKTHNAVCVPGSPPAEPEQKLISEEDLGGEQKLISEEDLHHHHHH

T3: mfGITR.mmh (Macaca fasicularis)
T3 construct: soluble monomeric construct; also called Macaca fasicularis (mf) GITR.mmh; cynomolgus GITR protein
T3 chain: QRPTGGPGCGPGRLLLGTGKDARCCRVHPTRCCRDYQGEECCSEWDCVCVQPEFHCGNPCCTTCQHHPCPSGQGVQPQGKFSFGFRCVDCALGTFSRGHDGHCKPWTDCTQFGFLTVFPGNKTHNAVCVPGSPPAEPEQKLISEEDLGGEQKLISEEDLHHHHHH

T4: hGITR.mFc (human)
T4 construct: soluble dimeric construct with mouse Fc; also called dimeric human GITR
T4 chain: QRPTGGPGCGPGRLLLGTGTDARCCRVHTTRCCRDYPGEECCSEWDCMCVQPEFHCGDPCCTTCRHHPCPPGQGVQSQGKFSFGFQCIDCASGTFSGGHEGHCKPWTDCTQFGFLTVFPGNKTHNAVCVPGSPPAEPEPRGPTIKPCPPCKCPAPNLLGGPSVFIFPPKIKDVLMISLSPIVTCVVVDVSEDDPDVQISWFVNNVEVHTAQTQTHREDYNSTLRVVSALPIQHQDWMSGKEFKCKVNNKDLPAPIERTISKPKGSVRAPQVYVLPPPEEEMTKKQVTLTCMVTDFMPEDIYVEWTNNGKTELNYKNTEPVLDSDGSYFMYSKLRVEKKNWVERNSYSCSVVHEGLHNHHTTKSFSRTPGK


Columns and labels:
[1] = biological target: T1, human GITR (amino acids M1-V241, NCBI …); test: ECL cell binding, hGITR/HEK293-D9
Procedure: Nonspecific binding sites were blocked with 2% BSA (w/v)+PBS for 1 h at room temperature (RT). Next, serial dilutions of anti-GITR antibodies, ranging from 1.7 pM to 100 nM, were added to cells for 1 h at RT. Plates were then washed to remove unbound antibodies (AquaMax2000 plate washer, MSD Analytical Technologies) and plate-bound antibodies were detected with a SULFO-TAG™ conjugated anti-human kappa light chain IgG antibody (Jackson Immunoresearch) for 1 h at RT.
Following washes, luminescent signals were recorded with a SECTOR Imager 6000 (MSD) instrument. Direct binding signals (relative light units, RLU) were analyzed as a function of the antibody concentration and data were fitted with a sigmoidal (four-parameter logistic) dose-response model using GraphPad Prism™ software. […] The signal detected with 100 nM antibody binding to the hGITR expressing cells versus parental cells was recorded as an indication of intensity and specificity of GITR binding.

[2] = biological target: T1, human GITR (amino acids M1-V241, NCBI …); test: cell-based or functional assay
hGITR.mmh = biological target: T2, hGITR.mmh; test: SPR 37C, mAb capture
Procedure: (§1) (Table 3). […] GITR proteins were injected over the sensor surface at a flow rate of 30 μL/minute. All Biacore binding studies were performed in a buffer composed of 0.01M HEPES pH 7.4, 0.15M NaCl, 3 mM EDTA, 0.05% v/v Surfactant P20 (HBS-ET running buffer). Antibody-reagent association was monitored for 4 minutes while dissociation in HBS-ET running buffer (10 mM HEPES, 150 mM NaCl, 3 mM EDTA, 0.05% (v/v) Surfactant P20, pH 7.4) was monitored for 10 minutes. Kinetic association (kₐ) and dissociation (kd) rate constants were determined by fitting the real-time sensorgrams to a 1:1 binding model using Scrubber 2.0c curve fitting software. Binding dissociation equilibrium constants (KD) and dissociative half-lives (t ½) were calculated from the kinetic rate constants as: KD [M]=kd/kₐ; and t_{1/2}(min)=(ln 2/(60*kd). Results are summarized in Table 3.

mfGITR.mmh = biological target: T3, mfGITR.mmh; test: SPR 37C, mAb capture
Procedure: as §1

hGITR.mFc = biological target: T4, hGITR.mFc; test: SPR 37C, mAb capture
Procedure: as §1

| Binder | Average Signal (RLU) at 100 nM [1] | EC50 [1] | % Activation, NF-kB-Luc, non-anchored [2] | % Blocking, NF-kB-Luc, non-anchored [2] | EC50, hGITR activation, NF-kB-Luc, non-anchored [2] | IC50, blocking of hGITRL stimulation, NF-kB-Luc, non-anchored [2] | Kd (hGITR.mmh) | koff (hGITR.mmh) | kon (hGITR.mmh) | t½ (hGITR.mmh) | Kd (mfGITR.mmh) | koff (mfGITR.mmh) | kon (mfGITR.mmh) | t½ (mfGITR.mmh) | Kd (hGITR.mFc) | koff (hGITR.mFc) | kon (hGITR.mFc) | t½ (hGITR.mFc) |
| --- | --- | --- | --- | --- | --- | --- | --- | --- | --- | --- | --- | --- | --- | --- | --- | --- | --- | --- |
| H1H14495P (antibody, human IgG1, V domains shown, human IgG1 (H1H)) VH: QVQLVESGGGAVQPGTSLRLSCAASGFTFSSFGMHWVRQAPGKGLEWVSVIWYEGSNKYYADSVKGRFTISRDNSRNTLSLQMDSLRVEDTAVYYCARGGELGVNYYYDMDVWGQGTTVTVSS VL: DIQMTQSPSSLSASVGDRVTITCRASQDIKNDLGWFQQKAGKAPKRLFYATSSLQSGVPSRFSGSGSGTEFTLTISSLQPEDFATYYCLQVHSYPRTFGQGTKVEIK | 6470 RLU | 0.43 nM | 30% | 80% | 1.3 nM | 0.7 nM | 2.45 nM | 0.00127 s⁻¹ | 517000 M⁻¹ s⁻¹ | 9.1 min | 24.5 nM | 0.00723 s⁻¹ | 296000 M⁻¹ s⁻¹ | 1.6 min | 0.0968 nM | 0.00011 s⁻¹ | 1.14e+06 M⁻¹ s⁻¹ | 105 min |
| H1H14474P (antibody, human IgG1, V domains shown, human IgG1 (H1H)) VH: QVQLVESGGGVVQPGRSLRLSCAASGFTFSSYGMDWVRQAPGKGLEWVAVIWYPGSNKYYADSVKGRFTVSRDNSKNTLYLQMNSLRAEDTAVYYCARDGELGLDYYSGMDVWGQGTTVTVSS VL: DIQMTQSPSSLSASVGDRVTITCRASQGIRNDLNWYQQKPGKAPKRLINGASSLQSGVPSRFSGSGSGTEFTLTISSLQPEDFATYYCLQLNSYPRTFGQGTKVEIK | 6230 RLU | 0.28 nM | 30% | 80% | 1.2 nM | 0.8 nM | 1.96 nM | 0.00116 s⁻¹ | 591000 M⁻¹ s⁻¹ | 9.9 min | 28 nM | 0.00951 s⁻¹ | 339000 M⁻¹ s⁻¹ | 1.2 min | 0.107 nM | 0.00013 s⁻¹ | 1.21e+06 M⁻¹ s⁻¹ | 89.2 min |
| H1H14523P (antibody, human IgG1, V domains shown, human IgG1 (H1H)) VH: QVQLVESGGGVVQPGRSLRLSCEASGFTFSSYGMHWVRQAPGKGLEWVAVIWYSESNKYYTDSMKGRLTISRDNSKNTLYLQMNSLRAEDTAVYYCARGGLLGKYYYYGMDVWGQGTTVTVSS VL: DIQMTQSPSSLSASVGDRVIITCRASQDIRNDLGWYQQKPGKAPKRLIYAASSLQSGVPSRFSGSGSGTEFTLTISSLQPEDFATFYCLQLNSYPYTFGQGTKLEIK | 6350 RLU | 0.4 nM | 40% | 70% | 2.5 nM | 0.9 nM | 8.63 nM | 0.00186 s⁻¹ | 216000 M⁻¹ s⁻¹ | 6.2 min | 88.5 nM | 0.0109 s⁻¹ | 123000 M⁻¹ s⁻¹ | 1.1 min | 0.216 nM | 0.00012 s⁻¹ | 555000 M⁻¹ s⁻¹ | 96.3 min |
| H1H14524P (antibody, human IgG1, V domains shown, human IgG1 (H1H)) VH: QVQLVESGGGVAQPGRSLSLSCAASGFTFSDYGMHWVRQAPGKGLEWVAVIWYAGSNKYYADSVKDRFTISRDNSKNTLYLQMRSLRVEDTAVYYCARGGELRLDYYSGLDVWGQGTTVTVSS VL: DIQMTQSPSSLSASVGDRVTVTCRASQGIRSDLGWYQQKPGKAPKRLIYAASSFQSGVPSRFSGSGSGTEFTLTISSLHPEDFATYYCLQSNNYPWTFGQGTKVEIK | 5740 RLU | 0.21 nM | 40% | 80% | 2.2 nM | 0.7 nM | 3.62 nM | 0.00147 s⁻¹ | 405000 M⁻¹ s⁻¹ | 7.9 min | 158 nM | 0.0189 s⁻¹ | 120000 M⁻¹ s⁻¹ | 0.6 min | 0.146 nM | 0.000135 s⁻¹ | 922000 M⁻¹ s⁻¹ | 85.6 min |
